Legend:
[1] = biological target: … HLA-A*01 complex (MAGE-3 peptide, soluble biotinylated pHLA); assay: SPR (BIAcore) method of Example 3
[2] = biological target: … HLA-A*01 complex (MAGE-3 peptide, soluble biotinylated pHLA); assay: SPR (BIAcore 3000); biotinylated pHLA on streptavidin chip, soluble TCR injected, 25 C

- koff [1]: 0.2 s⁻¹
- T½ (binding half-life) [2]: 3 s
B1: reference MAGE-3 TCR (disulfide linked soluble heterodimeric form) (TCR, V domains shown)
V domain 1: KQEVTQIPAALSVPEGENLVLNCSFTDSAIYNLQWFRQDPGKGLTSLLLIQSSQREQTSGRLNASLDKSSGRSTLYIAASQPGDSATYLCAVRPGGAGSYQLTFGKGTKLSVIP
V domain 2: KAGVTQTPRYLIKTRGQQVTLSCSPISGHRSVSWYQQTPGQGLQFLFEYFSETQRNKGNFPGRFSGRQFSNSRSEMNVSTLELGDSALYLCASSPNMADEQYFGPGTRLTVTE
